Paper PMC10397247
Values belong to the binder of their own block, whether it stands above or below them.

Assays:
P6SC2 = target: T1, P6SC2; experiment: two-hybrid library CC1; settings: mean of both orientations;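 also: natural log of median RNA to DNA barcode read ratio; higher means stronger binding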
T1 chain: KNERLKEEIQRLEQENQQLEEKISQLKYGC

P6SC1 = target: T2, P6SC1; experiment: two-hybrid library CC1; settings: mean of both orientations;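 also: natural log of median RNA to DNA barcode read ratio; higher means stronger binding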
T2 chain: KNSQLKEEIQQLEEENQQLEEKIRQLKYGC

P6 = target: T3, P6; experiment: two-hybrid library CC1; settings: mean of both orientations;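 also: natural log of median RNA to DNA barcode read ratio; higher means stronger binding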
T3 chain: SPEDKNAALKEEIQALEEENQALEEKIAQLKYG

P8 = target: T4, P8; experiment: two-hybrid library CC1; settings: mean of both orientations;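 also: natural log of median RNA to DNA barcode read ratio; higher means stronger binding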
T4 chain: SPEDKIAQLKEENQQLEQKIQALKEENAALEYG

P9 = target: T5, P9; experiment: two-hybrid library CC1; settings: mean of both orientations;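 also: natural log of median RNA to DNA barcode read ratio; higher means stronger binding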
T5 chain: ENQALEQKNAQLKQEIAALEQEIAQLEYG

P4 = target: T6, P4; experiment: two-hybrid library CC1;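 also: natural log of median RNA to DNA barcode read ratio; higher means stronger binding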
T6 chain: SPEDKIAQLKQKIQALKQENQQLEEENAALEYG

P5SC1 = target: T7, P5SC1; experiment: two-hybrid library CC1; settings: mean of both orientations
T7 chain: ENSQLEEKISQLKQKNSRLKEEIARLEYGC

P5mS = target: T8, P5mS; experiment: two-hybrid library CC1; settings: mean of both orientations
T8 chain: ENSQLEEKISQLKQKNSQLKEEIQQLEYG

P5 = target: T9, P5; experiment: two-hybrid library CC1; settings: mean of both orientations
T9 chain: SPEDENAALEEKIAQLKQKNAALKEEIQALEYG

P8mS = target: T10, P8mS; experiment: two-hybrid library CC1; settings: mean of both orientations
T10 chain: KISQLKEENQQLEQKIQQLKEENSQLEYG

P7 = target: T11, P7; experiment: two-hybrid library CC1; settings: mean of both orientations
T11 chain: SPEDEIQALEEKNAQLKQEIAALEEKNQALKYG

P4mS = target: T12, P4mS; experiment: two-hybrid library CC1; settings: mean of both orientations
T12 chain: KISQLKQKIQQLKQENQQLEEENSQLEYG

P6mS = target: T13, P6mS; experiment: two-hybrid library CC1; settings: mean of both orientations
T13 chain: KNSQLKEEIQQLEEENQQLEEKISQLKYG

P7mS = target: T14, P7mS; experiment: two-hybrid library CC1; settings: mean of both orientations
T14 chain: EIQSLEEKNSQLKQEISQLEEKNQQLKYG

P5SC2 = target: T15, P5SC2; experiment: two-hybrid library CC1; settings: mean of both orientations
T15 chain: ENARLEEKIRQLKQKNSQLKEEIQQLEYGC

4H2705-AA = target: T16, 4H2705-AA; experiment: two-hybrid library CCmax; settings: mean of both orientations
T16 chain: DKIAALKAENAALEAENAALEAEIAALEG

4H3409-AA = target: T17, 4H3409-AA; experiment: two-hybrid library CCmax; settings: mean of both orientations
T17 chain: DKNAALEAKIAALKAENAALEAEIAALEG

4H2758-AA = target: T18, 4H2758-AA; experiment: two-hybrid library CCmax; settings: mean of both orientations
T18 chain: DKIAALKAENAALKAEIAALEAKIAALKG

4H3625-AA = target: T19, 4H3625-AA; experiment: two-hybrid library CCmax; settings: mean of both orientations
T19 chain: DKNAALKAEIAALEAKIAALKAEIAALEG

4H2646-AA = target: T20, 4H2646-AA; experiment: two-hybrid library CCmax; settings: mean of both orientations
T20 chain: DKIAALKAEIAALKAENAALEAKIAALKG

4H87-AA = target: T21, 4H87-AA; experiment: two-hybrid library CCmax; settings: mean of both orientations
T21 chain: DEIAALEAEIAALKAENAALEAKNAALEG

4H775-AA = target: T22, 4H775-AA; experiment: two-hybrid library CCmax
T22 chain: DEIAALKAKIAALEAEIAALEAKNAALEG

4H2187-AA = target: T23, 4H2187-AA; experiment: two-hybrid library CCmax
T23 chain: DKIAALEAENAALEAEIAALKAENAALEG

4H233-AA = target: T24, 4H233-AA; experiment: two-hybrid library CCmax; settings: mean of both orientations
T24 chain: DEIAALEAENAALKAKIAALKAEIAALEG

4H2873-AA = target: T25, 4H2873-AA; experiment: two-hybrid library CCmax; settings: mean of both orientations
T25 chain: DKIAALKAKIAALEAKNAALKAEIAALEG

4H278-AA = target: T26, 4H278-AA; experiment: two-hybrid library CCmax; settings: mean of both orientations
T26 chain: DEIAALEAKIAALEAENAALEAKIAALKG

4H816-AA = target: T27, 4H816-AA; experiment: two-hybrid library CCmax; settings: mean of both orientations
T27 chain: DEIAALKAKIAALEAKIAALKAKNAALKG

4H2687-AA = target: T28, 4H2687-AA; experiment: two-hybrid library CCmax; settings: mean of both orientations
T28 chain: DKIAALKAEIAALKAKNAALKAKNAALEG

4H390-AA = target: T29, 4H390-AA; experiment: two-hybrid library CCmax; settings: mean of both orientations
T29 chain: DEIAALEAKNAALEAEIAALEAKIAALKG

4H2985-AA = target: T30, 4H2985-AA; experiment: two-hybrid library CCmax; settings: mean of both orientations
T30 chain: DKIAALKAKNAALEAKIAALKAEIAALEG

4H3940-AA = target: T31, 4H3940-AA; experiment: two-hybrid library CCmax; settings: mean of both orientations
T31 chain: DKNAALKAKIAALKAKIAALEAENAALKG

4H3134-AA = target: T32, 4H3134-AA; experiment: two-hybrid library CCmax; settings: mean of both orientations
T32 chain: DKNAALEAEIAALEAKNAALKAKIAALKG

4H510-AA = target: T33, 4H510-AA; experiment: two-hybrid library CCmax; settings: mean of both orientations
T33 chain: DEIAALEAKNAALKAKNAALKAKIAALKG

4H2512-AA = target: T34, 4H2512-AA; experiment: two-hybrid library CCmax; settings: mean of both orientations
T34 chain: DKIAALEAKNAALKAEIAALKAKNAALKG

Binder: SPEDKIAQLKQKIQALKQENQQLEEENAALEYG [P4]
interaction score (P6SC2): -2.66
interaction score (P6SC1): -2.87
interaction score (P6): -2.83
interaction score (P8): -2.99
interaction score (P9): -2.29
interaction score (P4): -3
interaction score (P5SC1): -2.83
interaction score (P5mS): -2.91
interaction score (P5): -3.06
interaction score (P8mS): -2.82
interaction score (P7): -2.74
interaction score (P4mS): -2.91
interaction score (P6mS): -2.85
interaction score (P7mS): -2.77
interaction score (P5SC2): -2.74

interaction score (4H2705-AA): -1.68
interaction score (4H3409-AA): -1.46
interaction score (4H2758-AA): 0.853
interaction score (4H3625-AA): -1.12
interaction score (4H2646-AA): -1.38
interaction score (4H87-AA): -2.2
interaction score (4H775-AA): -1.71
interaction score (4H2187-AA): -0.477
interaction score (4H233-AA): -0.428
interaction score (4H2873-AA): 0.406
interaction score (4H278-AA): -0.772
interaction score (4H816-AA): -0.683
interaction score (4H2687-AA): -0.754
interaction score (4H390-AA): 0.639
interaction score (4H2985-AA): -0.684
interaction score (4H3940-AA): -1.38
interaction score (4H3134-AA): 1.47
interaction score (4H510-AA): 0.192
interaction score (4H2512-AA): 2.24
Binder: DKIAALEAENAALEAEIAALKAENAALEG [4H2187-AA]
